Laboratory results published in article PMC10478084, “Use of Epivolve phage display to generate a monoclonal antibody with opsonic activity directed against a subdominant epitope on extracellular loop 4 of Treponema pallidum BamA (TP0326)” (Frontiers in Immunology, 2023).
Where a chain is given by its changes, count along the chain named. Where two headings read alike, the source gives them in different places. No end group written: not given here. *: point of attachment. Biotin = O=C1N[C@H]2[C@H](CS[C@H]2CCCCC(=O)*)N1

T1: BamA ECL4 peptide S2, native (Treponema pallidum subsp. pallidum, …)
T1 chain: Biotin-RVVKNFYDKDNNQPFDL

B1: IGX7128 (antibody, V domains shown)
VH: EVQLVQSGADVKKPGASLTISCQASGYTFTDYWISWVRQKPGKGLEWMGAIAPSTSKTEYGPSFQGHVTISADRSTATAYLQWRSLEASDTAMYYCVRQSAQTDSWGPGTLVTVSS
VL: SYELTQPPSVSVSPGQTARITCSGDALPKKYAYWYQQKSGQAPVLVIYEDRKRYSGIPERFSGSSSGTMATLTISGAQVEDEADYYCYSKAAKGNYMVFGGGTKLTVL
B2: mAb IGX7141 (antibody, V domains shown)
VH: B1 VH with A52S, S54A, T55N, K57R, E59S, I70F, S100G
VL: B1 VL with R51M, Y54P, A92S, K93D, M97F
notes: heavy-chain variable region from the Epivolve scFv; mouse IgG2 heavy-chain constant region; light-chain variable region LC3; mouse light-chain constant domain; Mouse IgG2 with variable regions selected from a human scFv phage library (Epivolve) and matured by error-prone PCR; source: HEK293-E, transfected (pTT5), purified from supernatant (Protein A)
B3: mAb IGX7137 (antibody, V domains shown)
VH: B1 VH with A24T, F29L, A52S, S54A, T55N, K57R, E59S, I70F, S100G, S105R
VL: B1 VL with S13P, R51M, Y54P, M69T, A92F, K93D, M97F
notes: heavy-chain variable region from the Epivolve scFv; mouse IgG2 heavy-chain constant region; light-chain variable region LC2 (shared with IGX7140); mouse light-chain constant domain; Mouse IgG2 with variable regions from the Epivolve scFv; source: HEK293-E, transfected (pTT5), purified from supernatant (Protein A)
B4: mAb IGX7140 (antibody, V domains shown)
VH: B1 VH with F29L, A52S, S54A, T55N, K57R, E59S, I70F, S100G, S105R
VL: B1 VL with S13P, R51M, Y54P, M69T, A92F, K93D, M97F
notes: heavy-chain variable region from the Epivolve scFv; mouse IgG2 heavy-chain constant region; light-chain variable region LC2 (as the light chain of m2); mouse light-chain constant domain; Mouse IgG2 with variable regions from the Epivolve scFv; also called IXG7140; source: HEK293-E, transfected (pTT5), purified from supernatant (Protein A)
B5: IGX7134 (antibody, V domains shown)
VH: B1 VH with D10V, I34F, H67L, Y80N, S100G, Q102H
VL: B1 VL

Columns and labels:
[1] = target: T2, Tp BamA β-barrel (TP0326) (Treponema pallidum subsp. pallidum, …, UniProt O83346)
Target sequence in this assay (O83346 434-837): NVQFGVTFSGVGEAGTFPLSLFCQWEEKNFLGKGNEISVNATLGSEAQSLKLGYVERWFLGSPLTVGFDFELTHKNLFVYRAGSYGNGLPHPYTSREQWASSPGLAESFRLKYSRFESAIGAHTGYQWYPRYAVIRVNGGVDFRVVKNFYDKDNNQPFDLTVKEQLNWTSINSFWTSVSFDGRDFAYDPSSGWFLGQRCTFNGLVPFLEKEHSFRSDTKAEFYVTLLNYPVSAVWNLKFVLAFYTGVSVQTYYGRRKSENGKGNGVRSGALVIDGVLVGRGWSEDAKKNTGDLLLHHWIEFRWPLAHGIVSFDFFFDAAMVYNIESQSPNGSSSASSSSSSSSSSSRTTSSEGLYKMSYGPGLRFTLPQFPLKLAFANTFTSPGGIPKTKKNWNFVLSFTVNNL

[2] = target: T1, BamA ECL4 peptide S2, native
[3] = target: T2, Tp BamA β-barrel (TP0326); assay: immunoblot; 200 to 1 ng of PfTrx^BamA/ECL4 or of BamA β-barrel (in 8M urea, Laemmli buffer) resolved by SDS-PAGE, transferred to nitrocellulose, probed with mAb at 4 μg/ml; details: both partners purified
Target sequence in this assay (O83346 whole entry, looked up): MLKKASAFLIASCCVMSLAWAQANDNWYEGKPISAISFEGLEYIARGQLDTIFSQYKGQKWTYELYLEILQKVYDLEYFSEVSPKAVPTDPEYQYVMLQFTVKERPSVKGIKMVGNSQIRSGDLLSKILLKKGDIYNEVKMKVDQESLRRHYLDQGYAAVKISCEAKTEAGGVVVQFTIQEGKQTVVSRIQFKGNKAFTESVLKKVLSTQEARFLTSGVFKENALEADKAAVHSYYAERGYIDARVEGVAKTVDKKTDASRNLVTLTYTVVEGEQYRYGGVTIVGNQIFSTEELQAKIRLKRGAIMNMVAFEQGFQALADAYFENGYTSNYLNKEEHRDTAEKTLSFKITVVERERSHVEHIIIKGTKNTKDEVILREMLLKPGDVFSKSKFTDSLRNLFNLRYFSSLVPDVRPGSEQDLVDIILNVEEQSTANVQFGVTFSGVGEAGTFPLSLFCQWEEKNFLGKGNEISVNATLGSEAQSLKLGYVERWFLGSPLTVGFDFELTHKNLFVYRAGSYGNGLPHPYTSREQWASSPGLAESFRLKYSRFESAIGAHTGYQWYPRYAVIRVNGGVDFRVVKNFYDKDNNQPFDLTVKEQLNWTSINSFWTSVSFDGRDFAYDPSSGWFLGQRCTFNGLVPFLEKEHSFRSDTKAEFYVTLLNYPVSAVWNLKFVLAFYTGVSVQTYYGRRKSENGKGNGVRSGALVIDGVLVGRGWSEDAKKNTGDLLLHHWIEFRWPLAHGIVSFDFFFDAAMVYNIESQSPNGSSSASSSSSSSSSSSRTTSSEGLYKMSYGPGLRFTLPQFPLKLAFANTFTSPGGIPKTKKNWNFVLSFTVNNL

Binder	binding result [1]	binding result [2]	binding result [3]
B1	binds	binds	–
B2	–	–	binds
B3	–	–	binds
B4	–	–	binds
B5	binds	binds	–
